In experiment [1] the target is T1, human ZnT8 (endogenous, in EndoC-βH1 cells and human pancreatic islets) (human, UniProt Q8IWU4 1-369).
T1 sequence: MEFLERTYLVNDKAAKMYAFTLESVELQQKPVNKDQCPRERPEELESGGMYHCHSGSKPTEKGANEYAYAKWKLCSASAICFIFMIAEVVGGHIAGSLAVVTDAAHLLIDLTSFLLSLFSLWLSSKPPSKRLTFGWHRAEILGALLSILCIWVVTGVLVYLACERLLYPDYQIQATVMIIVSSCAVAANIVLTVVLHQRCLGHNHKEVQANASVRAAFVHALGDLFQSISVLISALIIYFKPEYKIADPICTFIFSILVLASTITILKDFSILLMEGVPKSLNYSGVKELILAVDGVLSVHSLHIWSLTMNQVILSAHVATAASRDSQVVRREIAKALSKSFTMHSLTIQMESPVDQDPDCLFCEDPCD
The experiment is described as follows: cell-based or functional assay.

The target of experiment [2] is T1, human ZnT8 (endogenous, in EndoC-βH1 …). The experiment is described as follows: imaging quantification, live EndoC-βH1 cells, 8 °C (cell surface binding). How it is done:
(§1) For intracellular IF labeling, live cells were washed with a high glucose (20 mM) Krebs buffer, fixed using a flowcytometry fixation buffer for 20 min at RT, washed again using PBS, permeabilized with flowcytometry permeabilization buffer for 20 min at RT, blocked with PBS plus 5% BSA for 30 min, and then exposed to mAb43 (1:1000), mAb20 (1:1000), anti-CD71 (1:200) or anti-Na+/K+ ATPase (1:200) antibody for 2 hr at room temperature. Secondary antibody immunolabeling, DAPI counterstain and immunofluorescence imaging were performed using the same procedure as above. For experiments with wild-type INS-1E cells or ZnT8-KO INS-1E cells (13), cells were grown in RMPI 1640 medium supplied with 10% (v/v) fetal bovine serum (FBS), 100 units/ml penicillin, 100 μg/ml streptomycin, 10 mM HEPES, 2 mM glutamine, 1 mM sodium pyruvate and 50 μM β-ME. Immunofluorescence labeling and imaging followed the same procedure as above.
(§2) To track cell-surface capture of mAb43 and the ensuing ZnT8-mediated mAb43 endocytosis, a fluorescent A647 secondary antibody to label mAb20 and mAb43, and a CellMask green stain were used to demarcate the cell boundary. Live EndoC-βH1 cells were monitored for antibody surface binding and internalization. mAb43-A647 was rapidly internalized at 37° C. whereas mAb20-A647 exposure yielded no detectable signal (FIG. 5A). […]

Experiment [3] addresses T2, mouse ZnT8 (endogenous, in mouse pancreatic islets and β-cells) (mouse, UniProt Q8BGG0 1-367).
T2 construct: whole, on cells
T2 sequence (looked up): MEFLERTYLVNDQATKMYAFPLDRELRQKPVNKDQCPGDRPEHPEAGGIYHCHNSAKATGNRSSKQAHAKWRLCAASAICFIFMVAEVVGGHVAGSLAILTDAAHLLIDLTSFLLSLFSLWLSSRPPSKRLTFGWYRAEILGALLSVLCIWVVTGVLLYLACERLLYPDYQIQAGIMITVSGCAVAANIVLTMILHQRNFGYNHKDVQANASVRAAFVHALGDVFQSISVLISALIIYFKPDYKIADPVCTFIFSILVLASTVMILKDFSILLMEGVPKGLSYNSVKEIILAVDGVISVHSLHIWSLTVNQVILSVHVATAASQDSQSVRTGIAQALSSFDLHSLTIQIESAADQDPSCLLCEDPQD
The experiment is described as follows: immunofluorescence of dispersed, fixed and permeabilized mouse islet cells.

In experiment [4] the target is T1, human ZnT8 (endogenous, in EndoC-βH1 …). The experiment is described as follows: imaging quantification, live EndoC-βH1 cells, 37 °C (surface binding and uptake). How it is done: as §1, §2
Experiment [5] concerns the target T3, rat ZnT8 (endogenous, in INS-1E cells) (rat, UniProt P0CE46 1-368).
T3 construct: whole, on cells; also called ZnT8 in rodent β-cells
T3 sequence (looked up): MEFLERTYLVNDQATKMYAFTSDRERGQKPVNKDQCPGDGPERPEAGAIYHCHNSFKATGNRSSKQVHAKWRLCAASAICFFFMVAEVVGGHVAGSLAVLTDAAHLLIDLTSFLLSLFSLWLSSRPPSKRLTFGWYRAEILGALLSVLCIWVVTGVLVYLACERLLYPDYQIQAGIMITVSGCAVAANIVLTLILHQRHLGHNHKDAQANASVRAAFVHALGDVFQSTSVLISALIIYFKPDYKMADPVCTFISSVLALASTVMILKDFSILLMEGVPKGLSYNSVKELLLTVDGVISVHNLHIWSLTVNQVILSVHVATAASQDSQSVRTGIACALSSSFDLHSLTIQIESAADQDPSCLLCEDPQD
Briefly: immunofluorescence of live INS-1E cells; labeling abolished in ZnT8-knockout INS-1E cells.

For experiment [6], the target named is T4, human ZnT8-His (full-length ZnT8, isoform-2, C-terminal His-tag) (human, UniProt Q8IWU4-2 1-320).
T4 construct: mature; Expressed in 293-F cells; Used detergent-solubilized on nickel-coated plates, or purified and reconstituted into DOPC/DOPE/DOPG proteoliposomes (mixed orientations); Described as a homodimer; also called flZnT8; detergent-solubilized ZnT8; not shown: C-terminal His-tag
T4 sequence (looked up): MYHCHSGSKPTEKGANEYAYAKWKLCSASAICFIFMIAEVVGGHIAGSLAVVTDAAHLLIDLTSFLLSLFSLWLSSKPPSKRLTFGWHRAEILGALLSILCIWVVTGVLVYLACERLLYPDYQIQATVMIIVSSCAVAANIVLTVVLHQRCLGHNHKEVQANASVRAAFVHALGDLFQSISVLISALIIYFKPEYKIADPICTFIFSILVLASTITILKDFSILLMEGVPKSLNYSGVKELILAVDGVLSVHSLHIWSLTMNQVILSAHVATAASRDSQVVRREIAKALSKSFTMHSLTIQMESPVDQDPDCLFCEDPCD
The experiment is described as follows: ELISA titrations. A general note: In an ELISA, binding on a coated surface is turned into a signal by an enzyme label.

Experiment [7] concerns the target T4, human ZnT8-His (full-length ZnT8, …). Briefly: ELISA, mAb titration on detergent-solubilized flZnT8 (ZnT8-His) captured on a plate. From the text:
FIGS. 1A-1G show induction of anti-TMD antibodies and biochemical characterization. […] The TMD is imbedded in the lipid bilayer while the CTD is extended into the cytoplasm. […] Error bars are standard errors from 4 ZnT8-KO or 4 NOD mice, *p<0.01 (n=4). […] Note, ZnT8 in proteoliposomes adopted mixed transmembrane orientations exposing either TMD or CTD to antibody binding as indicated. Solid lines are least-square fits of binding curves to a hyperbolic function with r2>0.98.
Comparative ELISAs. For proteoliposome-based ELISA, 4 μg proteoliposomes (containing 5% human ZnT8-His by weight) diluted in 100 μl PBS were added to each well of a high-binding 96-well plate, and incubated overnight at 4° C. The passively immobilized proteoliposomes were blocked with 5% BSA, and then tested with hybridoma culture supernatants. For solution-based ELISA, 293-F cells expressing human ZnT8-His or CTD-His were mechanically lysed using a microfluidizer, and cleared of cell debris by ultracentrifugation. Then, 0.2 μg human ZnT8-His from detergent-solubilized cell membrane or 0.1 μg CTD-His from cell lysate in 100 μl PBS were immobilized to each well of a nickel-coated 96-well plate via the C-terminal His-tag. […] Bound serum antibodies were detected by an HRP-conjugated goat anti-mouse IgG secondary antibody (1:3000) on a Flexstation-3 microplate reader.

For experiment [8] the target is unchanged. The experiment is described as follows: ELISA titration to ZnT8 proteoliposomes, hyperbolic fit (printed as binding affinity). How it is done:
Comparative ELISAs. For proteoliposome-based ELISA, 4 μg proteoliposomes (containing 5% human ZnT8-His by weight) diluted in 100 μl PBS were added to each well of a high-binding 96-well plate, and incubated overnight at 4° C. The passively immobilized proteoliposomes were blocked with 5% BSA, and then tested with hybridoma culture supernatants. For solution-based ELISA, 293-F cells expressing human ZnT8-His or CTD-His were mechanically lysed using a microfluidizer, and cleared of cell debris by ultracentrifugation. Then, 0.2 μg human ZnT8-His from detergent-solubilized cell membrane or 0.1 μg CTD-His from cell lysate in 100 μl PBS were immobilized to each well of a nickel-coated 96-well plate via the C-terminal His-tag. The immobilized protein was blocked by 5% BSA, and then tested with mouse sera in 3-fold serial dilutions or hybridoma culture supernatants. Bound serum antibodies were detected by an HRP-conjugated goat anti-mouse IgG secondary antibody (1:3000) on a Flexstation-3 microplate reader.
Lymphocytes responsible for the production of antibodies to highly conserved epitopes of ZnT8 may be eliminated during the development of self-tolerance that prevents lymphocytes from attacking self-antigens. […]

Experiment [9] addresses human CTD-His (cytosolic C-terminal domain of ZnT8, C-terminal His-tag) (human) (UniProt Q8IWU4). The experiment is described as follows: ELISA, mAb titration on CTD (CTD-His) captured on a plate.
The target of experiment [10] is T2, mouse ZnT8 (endogenous, in mouse …). Briefly: flow cytometry of live dispersed mouse pancreatic cells, chimeric mAb20 and PE anti-human IgG, DCV gate. How it is done:
Tissue dispersion and pancreatic cell labeling. Excised pancreata from C57BL/6 mice were cut into small pieces, minced, and washed with HBSS on a 70-μm strainer to remove hematopoietic cells. The washed tissue pellets were resuspended in accutase and incubated at 37° C. for 30 min. DCV was added to stain DNA of live cells. The dispersed cells were filtrated through the strainer by a gentle spin at 1200 rpm for 2 min. The remaining tissue pellets underwent additional cycles of accutase digestion and cell filtration to achieve a complete cell dispersion. The dispersed cells were pooled and washed with cold cell culture medium with DNase and trypsin/chymotrypsin inhibitors. At this point, cell viability, measured by trypan blue exclusion, was typically over 80%. […] Chimeric mAb20 was used as an isotype control.
Fluorescence activated cell sorting and confocal microscopy analysis. The labeled pancreatic cells were analyzed and sorted immediately on a MoFlo XDP cell sorter (Beckman Coulter) equipped with a 405 and 561 nm laser. Data were collected on forward scatter, side scatter, and 440 nm and 578 nm fluorescence channels. Cells gated on forward and side scatter yielded >1 million single-cell counting events. The sorted cells in R0 or R1 gate were deposited on the glass bottom of a microwell dish by a gentle centrifugation (1200 rpm, 1 min). […]

As usually defined, the EC50 (read off the curve) is the concentration needed to bring the measured effect to its halfway point. One may read the Kd as a measure of binding affinity in units of concentration. A lower Kd goes with tighter binding.

B1: mAb43 (antibody, V domains shown)
VH: EVQLQQSGPELVKPGASVKIACKASGYTFTGYYMKWVKQSLGKSLEWIGDINPNNGGTNYNQHFKGKATLTVDESSSTAYMELRSLTSEDSAVYYCARGVDWIFAFWGQGTLVTVSP
VL: SIVMTQTPKFLPVSAGDRVTMTCKASQSVGNKVAWYQQKPGQSPKLLIYYATNRYTGVPDRFTGSGSGTDFTFTISSVQVEDLAVYFCQQHYSSPWTFGGGTKLEIK
notes: Hybridoma monoclonal antibody from a ZnT8-proteoliposome-immunized NOD mouse; also called mouse mAb43; anti-TMD mAb
On to B1, for which the “net mAb43-A647 uptake (difference in IF signals between 37 °C and 8 °C), fold increase by glucose stimulation (20 against 2 mM)” value in experiment [1] amounted to 30.9 fold. Besides, the “fold increase of total mAb43-A647 IF-labeling by glucose stimulation (20 mM against 2 mM) at 8 °C” value in experiment [2] came to 15 fold. Further, the binding result in experiment [3] and in [5] was “binds” each time. Besides, the “fold increase of total mAb43-A647 IF-labeling by glucose stimulation (20 mM against 2 mM) at 37 °C” value in experiment [4] worked out at 22.1 fold. Besides, the “fold increase of mAb43 reactivity, ZnT8 in proteoliposomes against detergent-solubilized ZnT8” value in experiment [6] turned out to be 6.29 fold. In addition, the “EC50 (read off the curve)” value in [7] was around 2 nM. In addition, the Kd in [8] came out at 0.42 nM.

B2: mAb20 (antibody, mouse IgG1, kappa, V domains shown)
VH: QIQLVQSGPELKKPGETVKISCKASGYIFTNYPMHWVKQAPGKGLKWMGWINTYSGVPTHADDFKGRFAFSLETSANSAFLQINNLKNEDTATYFCTRSRITPTGGYAMDYWGQGTSVTVSS
VL: DVVMTQTPLSLPVSLGDQASISCRSSQSLVHSNGNTYLHWYLQKPGQSPNLLISKVSNRFSGVPERFSGSGSGTDFTLKISRVEAEDLGVYFCSQNTHVPWTFGGGTKLEIKR
notes: Validated anti-CTD control antibody; also called anti-CTD mAb20; mAb20-A647 (mAb20 labeled with a fluorescent A647 secondary antibody)
Turning to B2, the concentration giving a half-maximal response (EC50 (read off the curve)) in [9] is 0.7 nM; in experiment [7], around 2 nM. Also, the Kd in experiment [8] is 0.57 nM.

B3: chimeric mAb20 (mouse/human) (antibody, V domains shown)
VH: B2 VH
VL: DVVMTQTPLSLPVSLGDQASISCRSSQSLVHSNGNTYLHWYLQKPGQSPNLLISKVSNRFSGVPERFSGSGSGTDFTLKISRVEAEDLGVYFCSQNTHVPWTFGGGTKLEIK
notes: also called mouse/human chimeric mAb20
For the molecule B3, the binding result in experiment [10] was “no binding”.

The values above are taken from patent US20250129153A1 (Johns Hopkins, published 2025).
